Assay: soluble on expression in E. coli; label from the status in PepcDB or PDB records

Sequence	soluble on expression in E. coli
MKPIDRFSYLKNNRVSQDTSSLVQCYLPIIGQEALSLYLYTISFWDNGRKEYLFSSILNHLNFGMDRLIKSLKILSAFNLLTLYQKGDVYQLALHAPLSSQDFLGHPVYRRLLEKKIGDVAVEDLKVESADGEEIPVSLNQVFPELAELGSQEDLGLKKKVANDFDLEHFRQLMARDGLRFADEQSDVLNLFAIAEEKKWTWFETYQLAKSTAVSQVISTKRMREKIAQKPVSSDFSLKEATIIKEAKSKTALQFLAEIKQTRKGTITQTERELLQQMAGLGLLDEVINIILLLTFNKVDSANINEKYAMKVANDYAYQKIHSAEEAVLRIRDRGQKAKTQKQNQTAPEKTNVPKWSNPEYKNETSEETRLELERKKQELLARLEKG	soluble
ATCYCRTGRCATRESLSGVCEISGRLYRLCCR	soluble
MGSDKIHHHHHHMKTERILGALYGQALGDAMGMPSELWPRSRVKAHFGWIDRFLPGPKENNAACYFNRAEFTDDTSMALCLADALLEREGKIDPDLIGRNILDWALRFDAFNKNVLGPTSKIALNAIRDGKPVAELENNGVTNGAAMRVSPLGCLLPARDVDSFIDDVALASSPTHKSDLAVAGAVVIAWAISRAIDGESWSAIVDSLPSIARHAQQKRITTFSASLAARLEIALKIVRNADGTESASEQLYQVVGAGTSTIESVPCAIALVELAQTDPNRCAVLCANLGGDTDTIGAMATAICGALHGVNAIDPALKAELDAVNQLDFNRYATALAKYRQQREAV	not soluble
SDSAWTALDMETQTMLKTAIKDPKTVDLEKLSNAVVEHSLKDLSFCKDAGRMCYAVVQAEAQKTASSVFRRNLLNRLQQEFIAREETRKRSMQEWVCVVTFICSIFDYIKVNNSPIAALVDPVYDCLFRLAQPDSLMNEEEVDCLVVQLHRVGEQLEQTNSERMNQLFYLLRDGFLLQEDLSSMTRLLLLEILEFRASGWTLSETAHKYYYSEVAD	soluble
MTYKGYLIDLDGTIYKGKDRIPAGEDFVKRLQERQLPYILVTNNTTRTPEMVQEMLATSFNIKTPLETIYTATLATIDYMNDMKRGKTAYVIGETGLKKAVAEAGYREDSENPAYVVVGLDTNLTYEKLTLATLAIQKGAVFIGTNPDLNIPTERGLLPGAGAILFLLEKATRVKPIIIGKPEAVIMNKALDRLGVKRHEAIMVGDNYLTDITAGIKNDIATLLVTTGFTKPEEVPALPIQPDFVLSSLAEWDFDER	soluble
MSLAVGKYTQLISDLLQSVSIVDALPRGAAQAGILCQDTKEVLESENTVLEIAIPRQDNLVIVGDIHGQFADMLSNVLSIQLNLNNTKATDGRGSPSTEIYKFLFLGDYVDRGPQSLEVITLLFALKVEYPEHIFLLRGNHEEAQTSRLYGFFQECKSKLEGTGDRGPASVDITSSTWLQYNTVFCWLPLAAVVACPSGMFFCTHGGLSPHTLSVPLLRSLRRNEYGMVDDFEDTFYTPTSRGGDDMLEGPGAKARLVIDGLLWSDPEDQVSGCQMNNRGCGFIFGPDVTRSFLDRNYSYGFPPSKRQLIGEMKPGMQFILRGHQCAREGYMWCHGGLVLTLFSAPNYCGMHGNKGAVALLRGQVQAGKDRVELEFNVYDTVVRGGSDNLVACLSPFAFAHYFSGDSEGHHHHHH	not soluble
DAPLNSVEGFIRQVLGWREFLRHVYRREMPSLAEANQLGANEALPDFYWNGDTDMACLSDVVDGVRERGYSHHIERLMILANFGLIYGVEPAQLNRWFHAGYVDAFHWVTTPNVVEMGLYGAGVFATKPYASSANYVDKMSDYCSGCPYYKTKTTGDGACPFNALYWDFLDRNEETLRSNHRMGLMYSHVDNKSDEELGEIRERAAEIREMATKGE	not soluble
MGSDKIHHHHHHMKQLFDNVSAMCSKLTTKKYSTSFSLGIHFLHKKLHDPVYAIYGFVRFADEIVDSFHGYDKKRLMAQFRRDTAFALQDKISLNPILNSFQHVVHTYNIEWELIDTFLKSMEMDLDQSAHNEQSYKEYIIGSAEVVGLMCLRVFVKGDVDMYEKQKPHAMSLGAAFQKVNFLRDAKEDFDSLGRTYFPDVSMEKFDRHIKQNIESDIEKDFQHALIGIKQLPAESRLGVYLAYIYYKNLFHKIKSIPPERMLKERIRIPNLNKFALLFQCYFRNQFNIL	not soluble
MGSDKIHHHHHHVAISIAGGVRPGKVIEIERRLYKQLIVGKHKANAMPDELSAELEESANKLDIERKALKMRLEKQAKEKSVYVEVSALLTHTVNNAIEHQLAHPQMILEASAISENQILLLDLLLHPDLNINRLRPIIESINWLSRDLINLINSPASRHRRPKHGDVQVTDIKLVLNYIGIEHLRLLIPYFCLRNWLPSGNANLLWITRKLWRYSMVSAIAAQTLAELHNEEPGLAYSCALMYQFSTSIILSQSGRIFDNTWGTWLREASHSREKQVYDAIMATDFPAEEVLGQVLLHSHRLNWQLLSLLKFDDSPITQVLKELDHDYHFTELSADAAIVAKASCYAKVLLLEEQQQIDPQEKRIMFDYYQFSAQELIRLKGQNFRKLDLL	not soluble
MGGVMSYFRGLFGAREMRILILGLDGAGKTTILYRLQVGEVVTTIPTIGFNVEQVEYKNLKFQVWDLGGQTSIRPYWRCYYANTDAIIYVVDSADRDRVGISRQELATMLQEDELQGAVLAVLANKQDIAGCLTETEVYKALGLDALRNRTIQIFKTSASKGEGLDPAMDWLANQLQQKK	not soluble
ESDSVEFNNAISYVNKIKTRFLDHPEIYRSFLEILHTYQKEQLHTKGRPFRGMSEEEVFTEVANLFRGQEDLLSEFGQFLPEAKR	soluble
MGAGEKGIVEKEGYQLDTRRQAQAAYPRIKVLVIHYTADDFDSSLATLTDKQVSSHYLVPAVPPRYNGKPRIWQLVPEQELAWHAGISAWRGATRLNDTSIGIELENRGWQKSAGVKYFAPFEPAQIQALIPLAKDIIARYHIKPENVVAHADIAPQRKDDPGPLFPWQQLAQQGIGAWPDAQRVNFYLAGRAPHTPVDTASLLELLARYGYDVKPDMTPREQRRVIMAFQMHFRPTLYNGEADAETQAIAEALLEKYGQD	soluble
FDSFKIEGRAKNADYVMRTTKIYREAIDSVLDGSYYDKLEYFKKELQKVYNRSYDTGFYFRDINKNHDFQYEIEGNASKYRKIEIGRVVNFYKKVSVAEIELWHDLKIGDTILIIGKTTGCVEEVVKSMQINHKDVEIAKKGERVGVKLNHLVREGDRVYLLKET	not soluble
SNAKVTVGKSAPYFSLPNEKGEKLSRSAERFRNRYLLLNFWASWCDPQPEANAELKRLNKEYKKNKNFAMLGISLDIDREAWETAIKKDTLSWDQVCDFTGLSSETAKQYAILTLPTNILLSPTGKILARDIQGEALTGKLKELLKTE	soluble
MAHHHHHHMASAEAEVAADMSAMWRYAEEARAGSSALSDLTYAERQAMLRAVAKALQTNEARILEANREDMVAAKANATADPLLRRLELTPSKLATLIEGISTLADMPDPIGQILSARELDNNLLLLKQTAPIGVVLVVFESRPESLPQIASLALCSGNGLLLKGGREGEHSNAVLHDLIVSAVESSTQGRVPRGVIGLVTNRADVYSLLQLDAHIDLVVPRGSNAMVQNIQRSTRIPVLGHADGICHVYVHKDADVDAALAVAIDAKLNYPAACNAAETLLLHRDLLHSPAHGTTAAQFLVNGMTEAGVSFYAGPQAIAAGLASELAASLHMEYGDAHMTVEVVDDLAAAIAHVNRHGSHHTDTILTVDKAAAAEFQRRVESACVFHNCSTRFADGFRFGLGAEVGISTARIHARGPVGVEGLLTQKWVLKPMGSLPQATEDGAAAAAANAPYATVAEFQKGQRVFTHKDVTRKLQDEAAGLRLQA	not soluble
GHHHHHHAIAENLYFQSAQYKGAASEAGRAMHLMKKREKQREQMEQMKQRIAEENIMKSNIDKKFSAHYDAVEAELKSSTVGLVTLNDMKAKQEALVKEREKQLAKKEQSKELQMKLEKLREKERKKEAKRKISSLSFTLEEEEEGGEEEEEAAMYEEEMEREEITTKKRKLGKNPDVDTSFLPDRDREEEENRLREELRQEWEAKQEKIKSEEIEITFSYWDGSGHRRTVKMRKGNTMQQFLQKALEILRKDFSELRSAGVEQLMYIKEDLIIPHHHSFYDFIVTKARGKSGPLFNFDVHDDVRLLSDATVEKDESHAGKVVLRSWYEKNKHIFPASRWEPYDPEKKWDKYTIR	not soluble
MSKVALIRCESYDYDAVKSAVKRGLDLIGGPHRFAAPNEKILLKPNLLSADPPERCSTTHPSVFKAVAEIFMEAGITNLSYGDSPGIHKPITAARKNGIEKAANELGIKLADFLEGKEVFFENAIQNKKFIIANGVLESDGIISLPKLKTHGFARMTGCVKNQFGCIPGPLKGEFHVRIPSIIDFSKMLVDLNVYLKPRLFVMDGIIAMEGNGPRGGTPRKINAILLSEDPIALDATVCRMINLNPEFVPTIVFGKEAGLGTYDENEIEILGDDIQSFITYDFDVRREPVKPFKPGGAIQFFRNFIVPKPYILKNKCIKCGVCVNACPVKPKAVDWHNGNKKEPPTYIYKRCIRCYCCQELCPESAIHLKVPFIRKFFYNPK	not soluble
SLLTALTADNQELFSLIDCSIDELTQIRSEQAFVCPMCHQSVILKAGPIKIPHFAHRKKNSCWYEAEAETEEHLRLKQLFAEKCLREKLSFQVEAYLPTLKQRPDLLIGKIAIEIQCSPLPIKRLVERTETYQTHGYQVVWILGERLVPKDKLTQLTKQFLYFSESLGFYLWSANKKQERIELLCHIEESQCQQFYRRKQSWDFYEKQLLEIFRLPTANLNLLPDRRHTGQLMHDYYQKLTQQLGYRNAQLLRTQSFLYTKGCHLLQLPPWFYYPGLKLIPSSEEDIHLKMLVWEALKTEEERLVTKQELWRILEAIFLEEGNFVWQPLPNIGLKKLFKIVGNNLLRWLQECYVLIKVNNKYLITSIFLREDPEKLIHWLKKVKKQHFFSHTC	soluble
MGGSHHHHHHGMASALAELSEEALLSVLPTIRVPKAGDRVHKDECAFSFDTPESEGGLYICMNTFLGFGKQYVERHFNKTGQRVYLHLRRTRRPKEEDPATGTGDPPRKKPTRLAIGVEGGFDLSEEKFELDEDVKIVILPDYLEIARDGLGGLPDIVRDRVTSAVEALLSADSASRKQEVQAWDGEVRQVSKHAFSLKQLDNPARIPPCGWKCSKCDMRENLWLNLTDGSILCGRRYFDGSGGNNHAVEHYRETGYPLAVKLGTITPDGADVYSYDEDDMVLDPSLAEHLSHFGIDMLKMQKTDKTMTELEIDMNQRIGEWELIQESGVPLKPLFGPGYTGIRNLGNSCYLNSVVQVLFSIPDFQRKYVDKLEKIFQNAPTDPTQDFSTQVAKLGHGLLSGEYSKPVPESGDGERVPEQKEVQDGIAPRMFKALIGKGHPEFSTNRQQDAQEFFLHLINMVERNCRSSENPNEVFRFLVEEKIKCLATEKVKYTQRVDYIMQLPVPMDAALNKEELLEYEEKKRQAEEEKMALPELVRAQVPFSSCLEAYGAPEQVDDFWSTALQAKSVAVKTTRFASFPDYLVIQIKKFTFGLDWVPKKLDVSIEMPEELDISQLRGTGLQPGEEELPDIAPPLVTPDEPKAPMLDESVIIQLVEMGFPMDACRKAVYYTGNSGAEAAMNWVMSHMDDPDFANPLILPGSSGPGSTSAAADPPPEDCVTTIVSMGFSRDQALKALRATNNSLERAVDWIFSHIDDLDAEAAMDISEGRSAADSISESVPVGPKVRDGPGKYQLFAFISHMGTSTMCGHYVC	not soluble
GPGSMGSKYDRVKVKVHLDDEHYYILSRFILSKMLTACKLPTTAAVCVSLALKKSLVDQERLDISQRELEAATLSTMAQHGYGAAFTRLLPVMTRFFIERTPLIVFMAGSGCCGKTSMARSLSVRLNTHNIVSTDLLLDILRATHHAYPSSALRGDLVELSDERVLPCVSEHSLWLSDTLAVDDFVRLWRTLTRAIRSLVEGEVEKALVEGKVLIVEGSLIDLSLYHNYLLDSFQSQRGVIAVAFHISSDEMSRNFAVERLVSTYRSVLPLSYTDNYNGALEWVQCRLRAIEGEHLRVLRGDSSAMQLHCIDDSLCDPATGDSTSVRDLSESYSNETSSTCDTRQLRLSQDNAEIVPVYGVTNSMAASSRVCESMHGLILDRIISALKQKGPLNLEHGNVVWCQAMDSEYMSPTNDT	not soluble
